In article PMC6996922:

Columns and labels:
Chk1 [1] = biological target: Chk1 (UniProt O14757); test: biotin-peptide streptavidin pull-down from lysate; conditions: reference: NC peptide with pT916 and pS945, untreated; sites T916,S945
Chk1 [2] = biological target: Chk1 (UniProt O14757); test: biotin-peptide streptavidin pull-down, purified Chk1; conditions: reference: NC peptide with pT916 and pS945, untreated; sites T916,S945

binding against the reference (Chk1 [1]): lost | binding against the reference (Chk1 [2]): lost
Substance: Claspin NC peptide, 901-955 (from UniProt Q9HAW4) NC peptide pretreated with λ-phosphatase
